From US20210355227A1 (Regeneron, published 2021)

Legend:
mouse GLP1R-MMH [1] = biological target: T1, mouse GLP1R-MMH (mouse); experiment: SPR Biacore 4000, mAb captured by anti-human Fc, 37 C
T1 construct: It was injected at 100 nM only; also called mGLP1R-MMH; monomeric mouse GLP1R
T1 chain: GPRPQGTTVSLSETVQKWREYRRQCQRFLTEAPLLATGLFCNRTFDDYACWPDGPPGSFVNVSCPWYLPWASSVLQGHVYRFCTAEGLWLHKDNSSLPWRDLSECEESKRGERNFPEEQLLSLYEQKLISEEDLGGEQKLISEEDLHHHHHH
Description: (§1) The equilibrium dissociation constant (KD) for GLP1R binding to selected GLP1R monoclonal antibodies (mAbs) was determined using a real-time surface plasmon resonance biosensor using a Biacore 4000 instrument. All binding studies were performed in 10 mM HEPES, 150 mM NaCl, 3 mM EDTA, and 0.05% v/v Surfactant Tween-20, pH 7.4 (HBS-ET) running buffer at 25° C. and 37° C. The Biacore CM5 sensor chip surface was first derivatized by amine coupling with human Fc specific mouse mAb to capture different GLP1R mAbs. […] At the end of each cycle, the GLP1R mAb capture surface was regenerated using a 12 sec injection of 20 mM phosphoric acid.
(§2) The association rate (kₐ) and dissociation rate (kd) were determined by fitting the real-time binding sensorgrams to a 1:1 binding model with mass transport limitation using Scrubber 2.0 c curve-fitting software. Binding dissociation equilibrium constant (KD) and dissociative half-life (t½) were calculated from the kinetic rates as:

[2] = biological target: full-length human GLP1R on HEK293/CRE-luc/GLP1R cells (human, UniProt P43220 24-463); experiment: cell-based or functional assay
[3] = biological target: T2, in-line fusion protein of human desA-GLP1 and GLP1R-MMH (human); experiment: SPR Biacore 4000, mAb captured by anti-human Fc, 25 C
T2 construct: also called hdesA-GLP1_GLP1R-MMH
T2 chain: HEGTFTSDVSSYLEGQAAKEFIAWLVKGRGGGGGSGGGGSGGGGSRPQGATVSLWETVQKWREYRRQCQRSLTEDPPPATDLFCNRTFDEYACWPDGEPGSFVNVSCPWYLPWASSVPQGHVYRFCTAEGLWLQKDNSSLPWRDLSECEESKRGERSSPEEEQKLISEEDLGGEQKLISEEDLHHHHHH
Description: as §1, §2

mouse GLP1R-MMH [4] = biological target: T1, mouse GLP1R-MMH; experiment: as above
Description: as §1, §2

[5] = biological target: T3, human GLP1R expressed with mouse IgG2a Fc (human); experiment: as above
T3 construct: It is probably the N-terminal region, as for hGLP1R-MMH, but the sentence is ambiguous; also called hGLP1R-mFc
T3 chain: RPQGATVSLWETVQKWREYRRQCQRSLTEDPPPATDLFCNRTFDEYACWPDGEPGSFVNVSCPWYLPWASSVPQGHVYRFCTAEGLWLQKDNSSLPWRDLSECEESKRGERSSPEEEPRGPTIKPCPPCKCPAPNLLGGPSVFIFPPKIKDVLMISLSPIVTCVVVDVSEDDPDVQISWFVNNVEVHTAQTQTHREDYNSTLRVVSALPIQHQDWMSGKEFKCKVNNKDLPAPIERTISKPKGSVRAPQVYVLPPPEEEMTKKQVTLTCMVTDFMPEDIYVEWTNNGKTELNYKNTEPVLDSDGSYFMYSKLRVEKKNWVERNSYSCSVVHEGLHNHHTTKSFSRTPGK
Description: as §1, §2

[6] = biological target: T2, in-line fusion protein of human …; experiment: SPR Biacore 4000, mAb captured by anti-human Fc, 37 C
Description: as §1
(§3) The association rate (kₐ) and dissociation rate (kd) were determined by fitting the real-time binding sensorgrams to a 1:1 binding model with mass transport limitation using Scrubber 2.0 c curve-fitting software.

[7] = biological target: T3, human GLP1R expressed with mouse IgG2a …; experiment: as above
Description: as §1, §2

[8] = biological target: T4, N-terminal region of human GLP1R-MMH (human); experiment: as above
T4 construct: also called hGLP1R-MMH
T4 chain: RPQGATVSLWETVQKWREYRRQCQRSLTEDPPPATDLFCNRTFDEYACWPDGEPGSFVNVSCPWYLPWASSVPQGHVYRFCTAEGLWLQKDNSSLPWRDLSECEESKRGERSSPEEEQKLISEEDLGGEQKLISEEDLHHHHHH
Description: as §1, §3

[9] = biological target: T4, N-terminal region of human GLP1R-MMH; experiment: SPR Biacore 4000, mAb captured by anti-human Fc, 25 C
Description: as §1, §3

[10] = biological target: T5, macaca fascicularis GLP1R-MMH (macaca fascicularis); experiment: SPR Biacore 4000, mAb captured by anti-human Fc, 37 C
T5 construct: also called mfGLP1R-MMH; monomeric cynomolgus GLP1R
T5 chain: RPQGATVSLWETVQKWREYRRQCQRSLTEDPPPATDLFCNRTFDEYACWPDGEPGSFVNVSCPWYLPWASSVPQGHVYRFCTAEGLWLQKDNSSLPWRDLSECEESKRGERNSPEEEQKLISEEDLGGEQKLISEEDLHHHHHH
Description: as §1, §3

[11] = biological target: T5, macaca fascicularis GLP1R-MMH; experiment: SPR Biacore 4000, mAb captured by anti-human Fc, 25 C
Description: as §1, §3

B1: mAb37639 (antibody, human IgG4 S228P, kappa, V domains shown)
VH: EVQLLESGGGVVQPGGSLRLSCVASGFTFSSYAMSWVRQAPGKGLEWVSSISGSGGSTDNADSVKGRFTISRDNSKNTLYLQMNSLRAEDTAVYYCAKDRITIFGVVLNGAFDIWGQGTMVTVSS
VL: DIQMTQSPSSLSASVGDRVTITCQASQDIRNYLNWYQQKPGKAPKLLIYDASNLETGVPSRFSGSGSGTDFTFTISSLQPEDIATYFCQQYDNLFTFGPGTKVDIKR
notes: In SPR the mAbs were captured by a human-Fc-specific antibody
- 100 nM mGLP1R-MMH Bound (RU) (mouse GLP1R-MMH [1]): 97 RU
- Kd (mouse GLP1R-MMH [1]): 22.1 nM
- koff (mouse GLP1R-MMH [1]): 0.00959 s⁻¹
- kon (mouse GLP1R-MMH [1]): 435000 M⁻¹ s⁻¹
- t½ (mouse GLP1R-MMH [1]): 1.2 min
- % Inhibition of human GLP1R activation by 40 pM GLP1 (CRE-luciferase reporter) [2]: 100%
- IC50 [M] of inhibition of human GLP1R activation by 40 pM GLP1 (CRE-luciferase reporter) [2]: 6.55e-09 M
- 100 nM hdesA-GLP1_GLP1R-MMH Bound (RU) [3]: 8 RU
- Kd [3]: 16 nM
- koff [3]: 0.00019 s⁻¹
- kon [3]: 11900 M⁻¹ s⁻¹
- t½ [3]: 61 min
- 100 nM mGLP1R-MMH Bound (RU) (mouse GLP1R-MMH [4]): 85 RU
- Kd (mouse GLP1R-MMH [4]): 16.9 nM
- koff (mouse GLP1R-MMH [4]): 0.00454 s⁻¹
- kon (mouse GLP1R-MMH [4]): 269000 M⁻¹ s⁻¹
- t½ (mouse GLP1R-MMH [4]): 2.5 min
- 100 nM hGLP1R-mFc Bound (RU) [5]: 122 RU
- Kd [5]: 2.37 nM
- koff [5]: 0.000156 s⁻¹
- kon [5]: 65900 M⁻¹ s⁻¹
- t½ [5]: 74 min
- 100 nM hdesA-GLP1_GLP1R-MMH Bound (RU) [6]: 21 RU
- Kd [6]: 74.2 nM
- koff [6]: 0.00127 s⁻¹
- kon [6]: 17100 M⁻¹ s⁻¹
- t½ [6]: 9 min
- 100 nM hGLP1R-mFc Bound (RU) [7]: 185 RU
- Kd [7]: 3.52 nM
- koff [7]: 0.000354 s⁻¹
- kon [7]: 101000 M⁻¹ s⁻¹
- t½ [7]: 33 min
- 100 nM hGLP1R-MMH Bound (RU) [8]: 123 RU
- Kd [8]: 0.632 nM
- koff [8]: 0.000422 s⁻¹
- kon [8]: 668000 M⁻¹ s⁻¹
- t½ [8]: 27 min
- 100 nM hGLP1R-MMH Bound (RU) [9]: 103 RU
- Kd [9]: 0.474 nM
- koff [9]: 0.000186 s⁻¹
- kon [9]: 393000 M⁻¹ s⁻¹
- t½ [9]: 62 min
- 100 nM mfGLP1R-MMH Bound (RU) [10]: 110 RU
- Kd [10]: 1.94 nM
- koff [10]: 0.000418 s⁻¹
- kon [10]: 215000 M⁻¹ s⁻¹
- t½ [10]: 28 min
- 100 nM mfGLP1R-MMH Bound (RU) [11]: 83 RU
- Kd [11]: 1.42 nM
- koff [11]: 0.000195 s⁻¹
- kon [11]: 137000 M⁻¹ s⁻¹
- t½ [11]: 59 min

B2: mAb36986 (antibody, human IgG4 S228P, kappa, V domains shown)
VH: QVQLVQSGTEVKKPGASVKVSCMASGYTFTTYGISWVRQAPGQGLEWMGWISAYNGNTKYAQRLQGRVTMTTDTSTTTAYMGLRGLRSDDTAVYFCARVTLSGRFDYWGQGTLVTVSP
VL: DIQMTQSPSSLSASVGDRVTITCQASQDISDYLNWYQQKPGKAPKLLIYDASNLETGVPSRFSGSGSGTDFTFTIRSLQPEDIATYYCQQYDNLPYTFGQGTKLEIKR
notes: as for B1
- 100 nM mGLP1R-MMH Bound (RU) (mouse GLP1R-MMH [1]): 70 RU
- Kd (mouse GLP1R-MMH [1]): 74.7 nM
- koff (mouse GLP1R-MMH [1]): 0.0485 s⁻¹
- kon (mouse GLP1R-MMH [1]): 649000 M⁻¹ s⁻¹
- t½ (mouse GLP1R-MMH [1]): 0.24 min
- % Inhibition of human GLP1R activation by 40 pM GLP1 (CRE-luciferase reporter) [2]: 100%
- IC50 [M] of inhibition of human GLP1R activation by 40 pM GLP1 (CRE-luciferase reporter) [2]: 1.69e-09 M
- 100 nM hdesA-GLP1_GLP1R-MMH Bound (RU) [3]: 13 RU
- Kd [3]: 3.56 nM
- koff [3]: 0.000108 s⁻¹
- kon [3]: 30400 M⁻¹ s⁻¹
- t½ [3]: 107 min
- 100 nM mGLP1R-MMH Bound (RU) (mouse GLP1R-MMH [4]): 88 RU
- Kd (mouse GLP1R-MMH [4]): 20.1 nM
- koff (mouse GLP1R-MMH [4]): 0.00902 s⁻¹
- kon (mouse GLP1R-MMH [4]): 449000 M⁻¹ s⁻¹
- t½ (mouse GLP1R-MMH [4]): 1.3 min
- 100 nM hGLP1R-mFc Bound (RU) [5]: 187 RU
- Kd [5]: 0.735 nM
- koff [5]: 7.64e-05 s⁻¹
- kon [5]: 104000 M⁻¹ s⁻¹
- t½ [5]: 151 min
- 100 nM hdesA-GLP1_GLP1R-MMH Bound (RU) [6]: 28 RU
- Kd [6]: 60.4 nM
- koff [6]: 0.000987 s⁻¹
- kon [6]: 16300 M⁻¹ s⁻¹
- t½ [6]: 12 min
- 100 nM hGLP1R-mFc Bound (RU) [7]: 246 RU
- Kd [7]: 3.35 nM
- koff [7]: 0.000432 s⁻¹
- kon [7]: 129000 M⁻¹ s⁻¹
- t½ [7]: 27 min
- 100 nM hGLP1R-MMH Bound (RU) [8]: 135 RU
- Kd [8]: 0.594 nM
- koff [8]: 0.000544 s⁻¹
- kon [8]: 915000 M⁻¹ s⁻¹
- t½ [8]: 21 min
- 100 nM hGLP1R-MMH Bound (RU) [9]: 115 RU
- Kd [9]: 0.139 nM
- koff [9]: 9.97e-05 s⁻¹
- kon [9]: 717000 M⁻¹ s⁻¹
- t½ [9]: 116 min
- 100 nM mfGLP1R-MMH Bound (RU) [10]: 128 RU
- Kd [10]: 1.59 nM
- koff [10]: 0.000501 s⁻¹
- kon [10]: 315000 M⁻¹ s⁻¹
- t½ [10]: 23 min
- 100 nM mfGLP1R-MMH Bound (RU) [11]: 103 RU
- Kd [11]: 0.424 nM
- koff [11]: 0.000102 s⁻¹
- kon [11]: 240000 M⁻¹ s⁻¹
- t½ [11]: 113 min

B3: mAb37645 (antibody, human IgG4 S228P, kappa, V domains shown)
VH: QVRLQQWGAGLLKPSETLSLTCAVYGGSFSGYFWSWIRQPPGKGLEWIGEINHGGNTNSNPSLKSRVTISVDTSKNQFSLKLSAVIAADTAVYYCARGQYRSGGGYWYFDLWGRGTLVTVSS
VL: EIVLTQSPGTLSLSPGERATLSCRASQSISSVHLAWYQQKPGQAPRLLIYGASSRATGIPDRFSGSGSETDFTLTVSRLEPDDFTMYYCQQYGSSPWTFGQGTKVEIKR
notes: as for B1
- 100 nM mGLP1R-MMH Bound (RU) (mouse GLP1R-MMH [1]): 42 RU
- Kd (mouse GLP1R-MMH [1]): 29.8 nM
- koff (mouse GLP1R-MMH [1]): 0.00249 s⁻¹
- kon (mouse GLP1R-MMH [1]): 83600 M⁻¹ s⁻¹
- t½ (mouse GLP1R-MMH [1]): 4.6 min
- % Inhibition of human GLP1R activation by 40 pM GLP1 (CRE-luciferase reporter) [2]: 73%
- IC50 [M] of inhibition of human GLP1R activation by 40 pM GLP1 (CRE-luciferase reporter) [2]: 1.23e-09 M
- 100 nM hdesA-GLP1_GLP1R-MMH Bound (RU) [3]: 58 RU
- Kd [3]: 4.32 nM
- koff [3]: 0.00052 s⁻¹
- kon [3]: 120000 M⁻¹ s⁻¹
- t½ [3]: 22 min
- 100 nM mGLP1R-MMH Bound (RU) (mouse GLP1R-MMH [4]): 30 RU
- Kd (mouse GLP1R-MMH [4]): 10.8 nM
- koff (mouse GLP1R-MMH [4]): 0.000617 s⁻¹
- kon (mouse GLP1R-MMH [4]): 56900 M⁻¹ s⁻¹
- t½ (mouse GLP1R-MMH [4]): 19 min
- 100 nM hGLP1R-mFc Bound (RU) [5]: 91 RU
- Kd [5]: 1.42 nM
- koff [5]: 0.000183 s⁻¹
- kon [5]: 128000 M⁻¹ s⁻¹
- t½ [5]: 63 min
- 100 nM hdesA-GLP1_GLP1R-MMH Bound (RU) [6]: 71 RU
- Kd [6]: 16.5 nM
- koff [6]: 0.00229 s⁻¹
- kon [6]: 139000 M⁻¹ s⁻¹
- t½ [6]: 5 min
- 100 nM hGLP1R-mFc Bound (RU) [7]: 116 RU
- Kd [7]: 2.59 nM
- koff [7]: 0.00065 s⁻¹
- kon [7]: 251000 M⁻¹ s⁻¹
- t½ [7]: 18 min
- 100 nM hGLP1R-MMH Bound (RU) [8]: 70 RU
- Kd [8]: 18 nM
- koff [8]: 0.00349 s⁻¹
- kon [8]: 195000 M⁻¹ s⁻¹
- t½ [8]: 3.3 min
- 100 nM hGLP1R-MMH Bound (RU) [9]: 60 RU
- Kd [9]: 5.72 nM
- koff [9]: 0.000866 s⁻¹
- kon [9]: 152000 M⁻¹ s⁻¹
- t½ [9]: 13 min
- 100 nM mfGLP1R-MMH Bound (RU) [10]: 42 RU
- Kd [10]: 55.2 nM
- koff [10]: 0.00384 s⁻¹
- kon [10]: 69500 M⁻¹ s⁻¹
- t½ [10]: 3 min
- 100 nM mfGLP1R-MMH Bound (RU) [11]: 35 RU
- Kd [11]: 19.6 nM
- koff [11]: 0.000826 s⁻¹
- kon [11]: 42200 M⁻¹ s⁻¹
- t½ [11]: 14 min
